Assay results as given in patent US20120316071A1 (published 2012).
Where a chain is given by its changes, count along the chain named. In names and notes the source's numbering stands.

B1: Fab VH1-46_IGHD6-6*01_IGHJ1*01 S102A/S103P/S104F/H111F G56H & L6_IGKJ1*01 (Fab, V domains shown)
VH: QVQLVQSGAEVKKPGASVKVSCKASGYTFTSYYMHWVRQAPGQGLEWMGIINPSGHSTSYAQKFQGRVTMTRDTSTSTVYMELSSLRSEDTAVYYCAREEYAPFSAEYFQFWGQGTLVTVSS
VL: not shown
notes: Fab from E. coli; CH1 (with His and Flag tags) and kappa CL come from the expression plasmids; also called APFF G56H
B2: Fab VH1-46_IGHD6-6*01_IGHJ1*01 S102A/S103P/S104F/H111F N52K & L6_IGKJ1*01 (Fab, V domains shown)
VH: B1 VH with N52K, H56G
VL: not shown
notes: Fab from E. coli; CH1 (with His and Flag tags) and kappa CL come from the expression plasmids; also called APFF N52K
B3: Fab VH1-46_IGHD6-6*01_IGHJ1*01 S102A/S103P/S104F/H111F N52G & L6_IGKJ1*01 (Fab, V domains shown)
VH: B1 VH with N52G, H56G
VL: not shown
notes: Fab from E. coli; CH1 (with His and Flag tags) and kappa CL come from the expression plasmids; also called APFF N52G
B4: Fab VH1-46_IGHD6-6*01_IGHJ1*01 S102A/S103P/S104F/H111F N52P & L6_IGKJ1*01 (Fab, V domains shown)
VH: B1 VH with N52P, H56G
VL: not shown
notes: Fab from E. coli; CH1 (with His and Flag tags) and kappa CL come from the expression plasmids; also called APFF N52P
B5: Fab VH1-46_IGHD6-6*01_IGHJ1*01 S102A/S103P/S104F/H111F N52A & L6_IGKJ1*01 (Fab, V domains shown)
VH: B1 VH with N52A, H56G
VL: not shown
notes: Fab from E. coli; CH1 (with His and Flag tags) and kappa CL come from the expression plasmids; also called APFF N52A
B6: Fab VH1-46_IGHD6-6*01_IGHJ1*01 S102A/S103P/S104F/H111F (APFF) & L6_IGKJ1*01 S28Q (Fab, V domains shown)
VH: B1 VH with H56G
VL: EIVLTQSPATLSLSPGERATLSCRASQQVSSYLAWYQQKPGQAPRLLIYDASNRATGIPARFSGSGSGTDFTLTISSLEPEDFAVYYCQQRSNWPPWTFGQGTKVEIKR
notes: Fab expressed in E. coli: VH joined to CH1 (Plasmid A, His6 and Flag tags), VL joined to kappa CL (Plasmid C); also called APFF S28Q
B7: Fab VH1-46_IGHD6-6*01_IGHJ1*01 S102A/S103P/S104F/H111F S54I & L6_IGKJ1*01 (Fab, V domains shown)
VH: B1 VH with S54I, H56G
VL: not shown
notes: Fab from E. coli; CH1 (with His and Flag tags) and kappa CL come from the expression plasmids; also called APFF S54I
B8: Fab VH1-46_IGHD6-6*01_IGHJ1*01 S102A/S103P/S104F/H111F N52S & L6_IGKJ1*01 (Fab, V domains shown)
VH: B1 VH with N52S, H56G
VL: not shown
notes: Fab from E. coli; CH1 (with His and Flag tags) and kappa CL come from the expression plasmids; also called APFF N52S
B9: Fab VH1-46_IGHD6-6*01_IGHJ1*01 S102A/S103P/S104F/H111F N52Q & L6_IGKJ1*01 (Fab, V domains shown)
VH: B1 VH with N52Q, H56G
VL: not shown
notes: Fab from E. coli; CH1 (with His and Flag tags) and kappa CL come from the expression plasmids; also called APFF N52Q
B10: Fab VH1-46_IGHD6-6*01_IGHJ1*01 S102A/S103P/S104F/H111F N52R & L6_IGKJ1*01 (Fab, V domains shown)
VH: B1 VH with N52R, H56G
VL: not shown
notes: Fab from E. coli; CH1 (with His and Flag tags) and kappa CL come from the expression plasmids; also called APFF N52R
B11: Fab VH1-46_IGHD6-6*01_IGHJ1*01 S102A/S103P/S104F/H111F G56S & L6_IGKJ1*01 (Fab, V domains shown)
VH: B1 VH with H56S
VL: not shown
notes: Fab from E. coli; CH1 (with His and Flag tags) and kappa CL come from the expression plasmids; also called APFF G56S
B12: Fab VH1-46_IGHD6-6*01_IGHJ1*01 S102A/S103P/S104F/H111F I51T/N52V & L6_IGKJ1*01 (Fab, V domains shown)
VH: B1 VH with I51T, N52V, H56G
VL: not shown
notes: Fab from E. coli; CH1 (with His and Flag tags) and kappa CL come from the expression plasmids; also called APFF I51T/N52V
B13: Fab VH1-46_IGHD6-6*01_IGHJ1*01 S102A/S103P/S104F/H111F G56W & L6_IGKJ1*01 (Fab, V domains shown)
VH: B1 VH with H56W
VL: not shown
notes: Fab from E. coli; CH1 (with His and Flag tags) and kappa CL come from the expression plasmids; also called APFF G56W
B14: Fab VH1-46_IGHD6-6*01_IGHJ1*01 S102A/S103P/S104F/H111F (APFF) & L6_IGKJ1*01 S28A (Fab, V domains shown)
VH: B1 VH with H56G
VL: B6 VL with Q28A
notes: Fab expressed in E. coli: VH joined to CH1 (Plasmid A, His6 and Flag tags), VL joined to kappa CL (Plasmid C); also called APFF S28A
B15: Fab VH1-46_IGHD6-6*01_IGHJ1*01 S102A/S103P/S104F/H111F (APFF) & L6_IGKJ1*01 S28H (Fab, V domains shown)
VH: B1 VH with H56G
VL: B6 VL with Q28H
notes: Fab expressed in E. coli: VH joined to CH1 (Plasmid A, His6 and Flag tags), VL joined to kappa CL (Plasmid C); also called APFF S28H
B16: Fab VH1-46_IGHD6-6*01_IGHJ1*01 S102A/S103P/S104F/H111F (APFF) & L6_IGKJ1*01 S28R (Fab, V domains shown)
VH: B1 VH with H56G
VL: B6 VL with Q28R
notes: Fab expressed in E. coli: VH joined to CH1 (Plasmid A, His6 and Flag tags), VL joined to kappa CL (Plasmid C); also called APFF S28R
B17: Fab VH1-46_IGHD6-6*01_IGHJ1*01 S102A/S103P/S104F/H111F N52W & L6_IGKJ1*01 (Fab, V domains shown)
VH: B1 VH with N52W, H56G
VL: not shown
notes: Fab from E. coli; CH1 (with His and Flag tags) and kappa CL come from the expression plasmids; also called APFF N52W
B18: Fab VH1-46_IGHD6-6*01_IGHJ1*01 S102A/S103P/S104F/H111F G56K & L6_IGKJ1*01 (Fab, V domains shown)
VH: B1 VH with H56K
VL: not shown
notes: Fab from E. coli; CH1 (with His and Flag tags) and kappa CL come from the expression plasmids; also called APFF G56K
B19: Fab VH1-46_IGHD6-6*01_IGHJ1*01 S102A/S103P/S104F/H111F (APFF) & L6_IGKJ1*01 S28E (Fab, V domains shown)
VH: B1 VH with H56G
VL: B6 VL with Q28E
notes: Fab expressed in E. coli: VH joined to CH1 (Plasmid A, His6 and Flag tags), VL joined to kappa CL (Plasmid C); also called APFF S28E
B20: Fab VH1-46_IGHD6-6*01_IGHJ1*01 S102A/S103P/S104F/H111F N52L & L6_IGKJ1*01 (Fab, V domains shown)
VH: B1 VH with N52L, H56G
VL: not shown
notes: Fab from E. coli; CH1 (with His and Flag tags) and kappa CL come from the expression plasmids; also called APFF N52L

Columns and labels:
[1] = target: T1, Recombinant Human DLL4 (delta-like protein 4) (human, UniProt Q9NR61 27-524); experiment: ECL 96-well plate assay on immobilised DLL4, 10 nM Fab
T1 construct: Bought recombinant protein (R&D Systems Cat#1506-D4/CF); also called rHuman DLL4

[2] = target: T1, Recombinant Human DLL4 (delta-like …); experiment: ELISA on plate-coated DLL4, 100 nM Fab
[3] = target: T2, Recombinant Human DLL4 (R&D Systems Cat#1506-D4/CF) (human, UniProt Q9NR61 27-524); experiment: ECL multispot (MSD) binding assay, DLL4 signal over blank spot; Fab concentration not given
T2 construct: Bought recombinant protein; also called delta-like protein 4; rHuman DLL4

[4] = target: T2, Recombinant Human DLL4 (R&D Systems …); experiment: ECL multispot (MSD) binding assay, DLL4 spotted on plate, purified Fab in solution; Fab concentration not given

Binder | ECL signal [1] | ELISA signal [2] | Signal/Blank [3] | ECL signal [4]
B1 | 68800 | 0.65 |  | 
B2 | 67100 | 0.45 |  | 
B3 | 55600 | 0.47 |  | 
B4 | 44800 | 0.18 |  | 
B5 | 52500 | 0.12 |  | 
B6 |  |  | 378 | 133000
B7 | 18400 | 0.03 |  | 
B8 | 62200 | 0.28 |  | 
B9 | 60600 | 0.1 |  | 
B10 | 21600 | 0.01 |  | 
B11 | 65700 | 0.18 |  | 
B12 | 71700 | 1.23 |  | 
B13 | 69600 | 0.54 |  | 
B14 |  |  | 472 | 157000
B15 |  |  | 609 | 209000
B16 |  |  | 246 | 110000
B17 | 87000 | 0.42 |  | 
B18 | 66200 | 0.19 |  | 
B19 |  |  | 439 | 184000
B20 | 75500 | 1.06 |  | 
